Data as given in the supplement of paper PMC10724198.
± gives the standard deviation of the averaged measurements.

System: Saccharomyces cerevisiae
Test: protein stability index of tFT-peptide fusion (C-terminal peptide) (PSI (0-1 scale)); higher = more stable (slower turnover)
Conditions: temperature: 30 C
Method: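 MPS profiling in S. cerevisiae of the yeast C-terminome library: the last 12 aa of each annotated ORF are fused to the C-terminus of a sfGFP-mCherry timer, after a GGGS linker. Cells are FACS-sorted into 8 mCherry/sfGFP bins and deep-sequenced. PSI runs from 0 (unstable) to 1 (stable); wild type and das1Δ backgrounds, two technical replicates each.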

[1] = genetic background: das1 deletion

Sequence | protein stability index [1] | protein stability index (genetic background: wild type)
KTRWQRVWDVLS [ALP1 C-terminal 12 aa] | 0.7259 ± 0.0053 | 0.207 ± 0.01
KTSSKGNARTLL [FMP49 C-terminal 12 aa] | 0.698 ± 0.025 | 0.709 ± 0.0091
KVETVLNKMFEK [REC114 C-terminal 12 aa] | 0.701 ± 0.015 | 0.687 ± 0.022
KVIRGKGFKLPK [ERD2 C-terminal 12 aa] | 0.675 ± 0.0093 | 0.667 ± 0.036
KVLACYEEIDDY [UBC11 C-terminal 12 aa] | 0.679 ± 0.0098 | 0.712 ± 0.059
KYEPTQEIIEDI [ITR1 C-terminal 12 aa] | 0.693 ± 0.036 | 0.702 ± 0.048
KYNNYFKIPPKY [BI3 C-terminal 12 aa] | 0.688 ± 0.022 | 0.659 ± 0.018
LAKLINKSCVFK [YKL069W C-terminal 12 aa] | 0.7 ± 0.023 | 0.642 ± 0.029
LARGGVASFTVK [RNH70 C-terminal 12 aa] | 0.703 ± 0.0078 | 0.652 ± 0.0088
LARLKTCVLLIN [YML122C C-terminal 12 aa] | 0.544 ± 0.017 | 0.154 ± 0.0076
LCGAPNCKGFLN [SET1 C-terminal 12 aa] | 0.677 ± 0.026 | 0.671 ± 0.036
LEKSTNPIKKNN [VOA1 C-terminal 12 aa] | 0.703 ± 0.023 | 0.765 ± 0.038
LEKVLNQIGLKN [YNL011C C-terminal 12 aa] | 0.6874 ± 0.0064 | 0.6425 ± 0.0062
LEPQESKPTIDH [AIM34 C-terminal 12 aa] | 0.697 ± 0.018 | 0.6899 ± 0.005
LFCYCSCDSYES [YBL100C C-terminal 12 aa] | 0.646 ± 0.017 | 0.668 ± 0.031
LFDARFERKNPH [SRB8 C-terminal 12 aa] | 0.737 ± 0.025 | 0.7112 ± 0.0032
LGFIQNSTIVCQ [YMR306C-A C-terminal 12 aa] | 0.467 ± 0.028 | 0.494 ± 0.019
LGKKKPPSRLFR [CDC25 C-terminal 12 aa] | 0.707 ± 0.019 | 0.715 ± 0.035
LGLSLRRGTEIW [MRP8 C-terminal 12 aa] | 0.72702 ± 0.00035 | 0.72218 ± 0.00069
LGSNCVFLAIFR [YPL222C-A C-terminal 12 aa] | 0.674 ± 0.032 | 0.648 ± 0.02
LHTEREKKKKKF [YKR040C C-terminal 12 aa] | 0.725 ± 0.043 | 0.682 ± 0.1

Sequence | protein stability index [1] | protein stability index (genetic background: wild type)
LHVVSSAYFEIQ [YEL075C C-terminal 12 aa] | 0.674 ± 0.041 | 0.626 ± 0.044
LICQTESNPKIV [VPS8 C-terminal 12 aa] | 0.708 ± 0.0091 | 0.694 ± 0.036
LIVSFFYKRNAL [IQG1 C-terminal 12 aa] | 0.667 ± 0.018 | 0.584 ± 0.015
LIVSYCASVAFG [ATG12 C-terminal 12 aa] | 0.366 ± 0.013 | 0.382 ± 0.0029
LKDQIVETRTPI [ERG27 C-terminal 12 aa] | 0.707 ± 0.042 | 0.664 ± 0.02
LKLKRDLLRLKR [CIP1 C-terminal 12 aa] | 0.682 ± 0.019 | 0.651 ± 0.021
LKQTVESLIKEL [VPS51 C-terminal 12 aa] | 0.66 ± 0.0088 | 0.711 ± 0.072
LKSATESFVATF [ATP1 C-terminal 12 aa] | 0.701 ± 0.0097 | 0.694 ± 0.014
LKSVKHSIRVYT [YPR012W C-terminal 12 aa] | 0.627 ± 0.015 | 0.604 ± 0.028
LLFGDEVVACKD [YDL172C C-terminal 12 aa] | 0.722 ± 0.017 | 0.691 ± 0.011
LLGAITALFGLI [PLB2 C-terminal 12 aa] | 0.686 ± 0.034 | 0.658 ± 0.029
LLKKLKVVFGIE [FUN12 C-terminal 12 aa] | 0.703 ± 0.014 | 0.68523 ± 0.0002
LLLTILLFYPPY [YBL109W C-terminal 12 aa] | 0.296 ± 0.011 | 0.318 ± 0.022
LLTAMSAQISFD [AAD16 C-terminal 12 aa] | 0.735 ± 0.00072 | 0.72 ± 0.012
LLYHMDLLLKVK [VID28 C-terminal 12 aa] | 0.299 ± 0.026 | 0.365 ± 0.015
LMQLLLGSLGLS [YKL145W-A C-terminal 12 aa] | 0.706 ± 0.0093 | 0.716 ± 0.031
LNDMVLELKENY [NNF1 C-terminal 12 aa] | 0.698 ± 0.015 | 0.704 ± 0.0096
LNEPKDSAENKI [SRC1 C-terminal 12 aa] | 0.6958 ± 0.0062 | 0.659 ± 0.026
LNWVFSFYSCSE [YIL163C C-terminal 12 aa] | 0.6796 ± 0.0049 | 0.688 ± 0.019
LQYKKVGKWRED [URB2 C-terminal 12 aa] | 0.724 ± 0.017 | 0.736 ± 0.0096
LRKAAANNCIQF [SUA5 C-terminal 12 aa] | 0.7215 ± 0.0026 | 0.7134 ± 0.0016

Sequence | protein stability index [1] | protein stability index (genetic background: wild type)
LRKRLSCYMLIL [YDR114C C-terminal 12 aa] | 0.576 ± 0.013 | 0.4114 ± 0.0012
LRNQSPFTSSNE [YKL107W C-terminal 12 aa] | 0.695 ± 0.02 | 0.682 ± 0.029
LRRGEPDNKVNR [SPG4 C-terminal 12 aa] | 0.71 ± 0.019 | 0.708 ± 0.012
LRVYENFQKFIK [YMR262W C-terminal 12 aa] | 0.72 ± 0.054 | 0.705 ± 0.04
LSDASYDTYELV [SPG5 C-terminal 12 aa] | 0.703 ± 0.011 | 0.743 ± 0.01
LSEKIYDAFGKL [MUS81 C-terminal 12 aa] | 0.723 ± 0.015 | 0.7271 ± 0.0047
LSIFGFDMFNRK [YMR1 C-terminal 12 aa] | 0.706 ± 0.046 | 0.703 ± 0.028
LSNMLNQFILNL [YLR202C C-terminal 12 aa] | 0.754 ± 0.058 | 0.74991 ± 6.5e-05
LSQIVDIWNKDI [MNT2 C-terminal 12 aa] | 0.741 ± 0.03 | 0.79 ± 0.044
LSTFFLFHNPCN [YGL239C C-terminal 12 aa] | 0.762 ± 0.022 | 0.706 ± 0.079
LSTLGVGAAIIS [AVT1 C-terminal 12 aa] | 0.695 ± 0.024 | 0.675 ± 0.035
LSVHPLKPCDPN [INP52 C-terminal 12 aa] | 0.684 ± 0.0054 | 0.661 ± 0.042
LTARKVNALRHR [KNH1 C-terminal 12 aa] | 0.694 ± 0.028 | 0.694 ± 0.048
LTILRISELSMN [MRPL49 C-terminal 12 aa] | 0.7053 ± 0.0034 | 0.354 ± 0.0057
LTLNWGVEIVKK [RDI1 C-terminal 12 aa] | 0.73 ± 0.03 | 0.725 ± 0.017
LTMLPPMAPLLS [YMR158W-B C-terminal 12 aa] | 0.684 ± 0.021 | 0.653 ± 0.018
LTPADLQFLFNN [RAD16 C-terminal 12 aa] | 0.72 ± 0.013 | 0.708 ± 0.017
LTQVEKPRGIFD [DDC1 C-terminal 12 aa] | 0.71 ± 0.023 | 0.674 ± 0.013
LVEGQTFDADVE [EGD1 C-terminal 12 aa] | 0.69111 ± 4.7e-05 | 0.671 ± 0.033
